This is an account of results in article PMC4481117, “The opioid peptide dynorphin A induces leukocyte responses via integrin Mac-1 (αMβ2, CD11b/CD18)” (Molecular Pain, 2015).

Assay [1] deals with T1, 125I-labeled αMI-domain, active form (αM Glu123-Lys315) (UniProt P11215 139-331, 125I label).
T1 construct: also called recombinant αMI-domain; α7 helix-truncated αMI-domain
Kind of assay: peptide or protein array; 9-mer peptides on cellulose membrane (SPOT synthesis), blocked with 1 % BSA, incubated with 10 μg/ml 125I-labeled αMI-domain in TBS with 1 mM MgCl2; autoradiography and densitometry. The note with it: both partners purified.

Assay [2] addresses integrin Mac-1 on IC-21 murine macrophages (mouse (endogenous in IC-21), UniProt P05555 17-1153; P11835 24-771). As to the kind of experiment: cell-based or functional assay.

cellulose = cellulose membrane support; βAla = NCCC(=O)O

T1 sequence (P11215 139-331): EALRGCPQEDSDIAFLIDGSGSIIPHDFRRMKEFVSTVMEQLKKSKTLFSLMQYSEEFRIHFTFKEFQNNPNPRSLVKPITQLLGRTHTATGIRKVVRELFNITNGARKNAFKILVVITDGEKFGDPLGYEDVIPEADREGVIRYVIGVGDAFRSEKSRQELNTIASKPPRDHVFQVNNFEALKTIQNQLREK
Chain of integrin Mac-1 on IC-21 murine macrophages (P05555 17-1153, chain 1 of 2): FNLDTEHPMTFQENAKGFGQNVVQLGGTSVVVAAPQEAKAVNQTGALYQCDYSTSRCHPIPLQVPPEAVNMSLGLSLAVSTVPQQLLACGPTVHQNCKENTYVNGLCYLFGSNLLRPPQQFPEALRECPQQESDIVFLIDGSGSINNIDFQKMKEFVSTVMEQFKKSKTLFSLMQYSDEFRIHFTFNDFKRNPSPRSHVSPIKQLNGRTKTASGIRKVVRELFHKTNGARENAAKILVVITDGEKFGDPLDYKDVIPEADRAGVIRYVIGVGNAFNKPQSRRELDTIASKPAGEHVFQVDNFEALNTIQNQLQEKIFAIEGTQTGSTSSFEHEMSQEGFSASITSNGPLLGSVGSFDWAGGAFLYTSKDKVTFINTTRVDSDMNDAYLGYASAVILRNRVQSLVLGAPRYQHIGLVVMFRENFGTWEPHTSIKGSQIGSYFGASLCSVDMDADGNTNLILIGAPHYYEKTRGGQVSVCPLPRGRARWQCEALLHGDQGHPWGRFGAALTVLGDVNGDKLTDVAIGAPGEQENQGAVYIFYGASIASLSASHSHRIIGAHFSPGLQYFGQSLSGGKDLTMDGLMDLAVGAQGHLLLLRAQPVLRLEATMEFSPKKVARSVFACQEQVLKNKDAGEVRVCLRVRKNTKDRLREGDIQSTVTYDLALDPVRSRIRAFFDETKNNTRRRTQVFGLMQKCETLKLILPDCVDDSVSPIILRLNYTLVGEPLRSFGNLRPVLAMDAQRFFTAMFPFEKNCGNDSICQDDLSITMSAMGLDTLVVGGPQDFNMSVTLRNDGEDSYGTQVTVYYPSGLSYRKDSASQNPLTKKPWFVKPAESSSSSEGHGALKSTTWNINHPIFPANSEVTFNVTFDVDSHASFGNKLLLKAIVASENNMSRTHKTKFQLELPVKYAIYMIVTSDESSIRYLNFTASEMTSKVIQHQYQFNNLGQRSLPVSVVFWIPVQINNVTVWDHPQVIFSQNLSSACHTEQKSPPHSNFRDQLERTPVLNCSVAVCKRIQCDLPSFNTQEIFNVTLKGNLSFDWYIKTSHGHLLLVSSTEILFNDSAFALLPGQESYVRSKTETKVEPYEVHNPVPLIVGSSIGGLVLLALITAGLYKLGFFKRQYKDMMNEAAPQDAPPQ
Chain of integrin Mac-1 on IC-21 murine macrophages (P11835 24-771, chain 2 of 2): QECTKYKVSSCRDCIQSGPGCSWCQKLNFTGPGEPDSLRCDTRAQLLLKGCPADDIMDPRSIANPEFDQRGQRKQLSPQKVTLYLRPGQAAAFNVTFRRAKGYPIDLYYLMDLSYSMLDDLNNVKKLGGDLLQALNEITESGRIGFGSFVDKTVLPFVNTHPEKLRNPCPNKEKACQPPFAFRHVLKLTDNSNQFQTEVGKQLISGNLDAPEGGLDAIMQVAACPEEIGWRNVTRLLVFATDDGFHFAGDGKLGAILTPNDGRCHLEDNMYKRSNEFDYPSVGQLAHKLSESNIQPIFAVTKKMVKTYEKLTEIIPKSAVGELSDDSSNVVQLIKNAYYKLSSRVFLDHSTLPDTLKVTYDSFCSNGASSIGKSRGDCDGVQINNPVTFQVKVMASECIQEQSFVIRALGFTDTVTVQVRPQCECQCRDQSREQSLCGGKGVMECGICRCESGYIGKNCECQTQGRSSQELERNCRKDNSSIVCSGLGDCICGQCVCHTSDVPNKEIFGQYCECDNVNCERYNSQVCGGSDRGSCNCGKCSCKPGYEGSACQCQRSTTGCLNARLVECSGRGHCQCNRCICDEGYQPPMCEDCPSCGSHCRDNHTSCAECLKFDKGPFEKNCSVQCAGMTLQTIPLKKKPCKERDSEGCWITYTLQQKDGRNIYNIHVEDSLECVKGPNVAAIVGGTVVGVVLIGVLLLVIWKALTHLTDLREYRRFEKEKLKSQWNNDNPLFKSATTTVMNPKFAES

B1: dynorphin AB library peptide, spot 1 (YGGFLRRIR) (peptide)
peptide: Ac-YGGFLRRIR-{βAla-βAla-cellulose}
notes: 9-mer of dynorphin AB; also called peptide #1; source: synthetic peptide, parallel spot synthesis on cellulose membrane
As to B1, the binding result in assay [1] was “binds”.
Consider YGGFLRRIRPKLKWDNQ [dynorphin A], for which, in assay [2], the “phagocytosis of Dyn A-treated fluorescent latex beads by IC-21 murine macrophages, against control beads” value was about 10 fold.

B2: dynorphin AB library peptide, spot 2 (FLRRIRPKL) (peptide)
peptide: Ac-FLRRIRPKL-{βAla-βAla-cellulose}
notes: 9-mer of dynorphin AB; source: synthetic peptide, parallel spot synthesis on cellulose membrane
Take B2: the binding result in assay [1] is “binds”.
